Test [1] addresses CoV-2 (SARS-CoV-2).
Test [2] concerns the target CoV-2 (SARS-CoV-2). The source holds these as a separate data set.
Test [3] addresses CoV-2 (SARS-CoV-2). This is another data set of the same source.
The target of test [4] is SARS-CoV-2 Spike RBD-His Tag, Sino Biological (SARS-CoV-2).
For test [5] the target is unchanged. The source holds these as a separate data set.
The target is the same in test [6]. This is another data set of the same source.
Test [7] shares this target. The source holds these as a separate data set.
Test [8] shares this target. The source holds these as a separate data set.
The target is the same in test [9]. This is another data set of the same source.
Test [10] has the same target. This is another data set of the same source.
The target is the same in test [11]. This is another data set of the same source.
For test [12] the target is unchanged. This is another data set of the same source.
Test [13] has as its target CoV-2 (SARS-CoV-2). This is another data set of the same source.
Test [14] deals with CoV-2 (SARS-CoV-2). This is another data set of the same source.
Test [15] concerns the target SARS-CoV-2 Spike RBD-His Tag, Sino Biological (SARS-CoV-2). The source holds these as a separate data set.
Test [16] shares this target. The source holds these as a separate data set.
For test [17] the target is unchanged. The source holds these as a separate data set.
Test [18] has the same target. The source holds these as a separate data set.
The target is the same in test [19]. This is another data set of the same source.
For test [20] the target is unchanged. The source holds these as a separate data set.
For test [21] the target is unchanged. The source holds these as a separate data set.
Test [22] deals with CoV-2 (SARS-CoV-2). This is another data set of the same source.
Test [23] deals with SARS-CoV-2 Spike RBD-His Tag, Sino Biological (SARS-CoV-2). This is another data set of the same source.

The results in this text go back to patent US20240059759A1.

Changes are numbered by the printed parent chain. Several values for one entry are separate records, joined by “and”; a condition that tells them apart may be missing. Identical values can stand only once. Like-named read-outs stand apart in the source and are kept apart here.

B1: vhh_tstrep_sars2_pjl1_L_1 (VHH)
VHH: QVQLQESGGGLVQAGGSLRLSCAASGRTFSEYAMGWFRQAPGKEREFVATISWSGGSTYYTDSVKGRFTISRDNAKNTVYLQMNSLKPDDTAVYYCGAAGLGTVVSEWDYDYDYWGQGTQVTVSS
Regarding B1, the xmid (log10) turned out to be 0.321 with CoV-2 (SARS-CoV-2) [1], 0.903 with CoV-2 (SARS-CoV-2) [2] and 0.839 with CoV-2 (SARS-CoV-2) [3].

B2: vhh_tstrep_sars2_pjl1_L_123 (VHH)
VHH: B1 VHH with S54I, S57A, Y60H, G97A
Regarding B2, the xmid (log10) in test [4] was 0.9; in test [5] it was 0.157.

B3: vhh_tstrep_sars2_pjl1_L_82 (VHH)
VHH: B1 VHH with S57A, G97A, G100E
On to B3, for which the xmid (log10) in test [6] came to 0.155; in test [7] it was 0.109.

B4: vhh_tstrep_sars2_pjl1_L_132 (VHH)
VHH: B1 VHH with S54G, S57A, Y60H, G97A
Turning to B4, the xmid (log10) in test [8] is 0.0703; in test [5], -0.157.

B5: vhh_tstrep_sars2_pjl1_L_119 (VHH)
VHH: B1 VHH with I51E, S57A, Y60H, G97A
Consider B5, for which the xmid (log10) in test [9] is 0.385; in test [10] it was 0.39.

B6: vhh_tstrep_sars2_pjl1_L_128 (VHH)
VHH: B1 VHH with W53P, S57A, Y60H, G97A
As for B6, the xmid (log10) was 0.384 in test [4] and -0.2 in [11].

B7: vhh_tstrep_sars2_pjl1_L_118 (VHH)
VHH: B1 VHH with S57A, Y59G, Y60H, G97A
Turning to B7, the xmid (log10) in test [9] came out at 0.784; in [12] it was 0.412.

B8: vhh_tstrep_sars2_pjl1_L_22 (VHH)
VHH: B1 VHH with W53A, G97A
As to B8, the xmid (log10) came out at 0.688 with CoV-2 (SARS-CoV-2) [13], 1.08 with CoV-2 (SARS-CoV-2) [2] and 0.892 in the test with CoV-2 (SARS-CoV-2) [14].

B9: vhh_tstrep_sars2_pjl1_L_81 (VHH)
VHH: B1 VHH with S57A, G97A, G100R
B9: the values for the xmid (log10) in test [6] and in test [7] were 0.479 and 1.06, respectively.

B10: vhh_tstrep_sars2_pjl1_L_130 (VHH)
VHH: B1 VHH with S57A, Y60H, G66A, G97A
B10: the values for the xmid (log10) in test [4] and in [11] were 0.204 and -0.532, respectively.

B11: vhh_tstrep_sars2_pjl1_L_116 (VHH)
VHH: B1 VHH with T50S, S57A, Y60H, G97A
On to B11, for which the xmid (log10) in test [15] is -0.0157; in test [10] it was 0.288.

B12: vhh_tstrep_sars2_pjl1_L_77 (VHH)
VHH: B1 VHH with S57A, Y60H, G97A
B12: the xmid (log10) was -1.22 in [16]; -1.42 in [17]; -1.54 in test [15]; -1.54 in [18]; -1.6 in test [8]; -1.92 in test [19]. The xmid (log10) was -1.49 in test [10]; -1.54 in test [11]; -1.66 and -1.72 in test [20].

B13: vhh_tstrep_sars2_pjl1_L_135 (VHH)
VHH: B1 VHH with S57A, Y60H, G97A, G102W
B13: the values for the xmid (log10) in test [4] and in test [5] were -1.5 and -1.65, respectively.

B14: vhh_tstrep_sars2_pjl1_L_121 (VHH)
VHH: B1 VHH with G56W, S57A, Y60H, G97A
For the molecule B14, the xmid (log10) is -0.224 in [9] and -0.645 in test [12].

B15: vhh_tstrep_sars2_pjl1_L_129 (VHH)
VHH: B1 VHH with S57A, Y60H, D62T, G97A
Turning to B15, the xmid (log10) in test [9] and in test [11] was -1.34 in each case.

B16: vhh_tstrep_sars2_pjl1_L_80 (VHH)
VHH: B1 VHH with S57A, D62R, G97A
With B16, the xmid (log10) in test [6] was -0.743; in test [17] it was -0.61.

B17: vhh_tstrep_sars2_pjl1_L_124 (VHH)
VHH: B1 VHH with S57G, Y60H, G97A
Turning to B17, the values for the xmid (log10) in [18] and in test [12] were -1.84 and -1.89, respectively.

B18: vhh_tstrep_sars2_pjl1_L_113 (VHH)
VHH: B1 VHH with S57A, Y60H, G97A, Y110F
For the molecule B18, the xmid (log10) in [21] is -0.0032; in test [12], 0.334.

B19: vhh_tstrep_sars2_pjl1_L_40 (VHH)
VHH: B1 VHH with D62A, G97A
As to B19, the xmid (log10) is -0.664 with CoV-2 (SARS-CoV-2) [22] and 0.226 with CoV-2 (SARS-CoV-2) [3].

B20: vhh_tstrep_sars2_pjl1_L_117 (VHH)
VHH: B1 VHH with S57A, Y60H, D62W, G97A
For the molecule B20, the results for the xmid (log10) in test [9] and in test [23] were -1.7 and -1.5, respectively.

B21: vhh_tstrep_sars2_pjl1_L_126 (VHH)
VHH: B1 VHH with S57A, T58S, Y60H, G97A
For the molecule B21, the values for the xmid (log10) in [4] and in test [12] were 0.489 and -0.398, respectively.

B22: vhh_tstrep_sars2_pjl1_L_127 (VHH)
VHH: B1 VHH with S57A, T58A, Y60H, G97A
With B22, the xmid (log10) is 0.479 in test [9] and -0.006 in test [12].

B23: vhh_tstrep_sars2_pjl1_L_115 (VHH)
VHH: B1 VHH with S57A, Y60H, G97A, G100D
B23: the xmid (log10) in test [15] was -0.277; in test [19], 0.0337.

B24: vhh_tstrep_sars2_pjl1_L_24 (VHH)
VHH: B1 VHH with Y59A, G97A
On to B24, for which the xmid (log10) came out at 0.582 with CoV-2 (SARS-CoV-2) [13], 0.515 with CoV-2 (SARS-CoV-2) [3] and 0.908 in the test with CoV-2 (SARS-CoV-2) [14].

B25: vhh_tstrep_sars2_pjl1_L_114 (VHH)
VHH: B1 VHH with S57A, Y60H, G97A, A98P
Take B25: the xmid (log10) in test [21] was determined as 0.263; in test [23], 0.526.

B26: vhh_tstrep_sars2_pjl1_L_112 (VHH)
VHH: B1 VHH with S57A, Y60H, S63T, G97A
Turning to B26, the xmid (log10) in test [21] was -1.14; in [23], -1.27.

B27: vhh_tstrep_sars2_pjl1_L_133 (VHH)
VHH: B1 VHH with S57A, Y60H, G97A, Y114S
In the case of B27, the xmid (log10) was -1.46 in [18] and -1.7 in test [5].

B28: vhh_tstrep_sars2_pjl1_L_46 (VHH)
VHH: B1 VHH with G97A, W108A
B28 registered a xmid (log10) in the test with CoV-2 (SARS-CoV-2) [22] of 1.65.

B29: vhh_tstrep_sars2_pjl1_L_75 (VHH)
VHH: B1 VHH with S57A, Y60S, G97A
On to B29, for which the xmid (log10) in [16] is -0.0338; in test [17], 0.0467.

B30: vhh_tstrep_sars2_pjl1_L_85 (VHH)
VHH: B1 VHH with S57A, G97A, G102E
With B30, the xmid (log10) in test [6] is -1.05; in [7], -0.815.

B31: vhh_tstrep_sars2_pjl1_L_139 (VHH)
VHH: B1 VHH with S57A, Y60H, G97A, Y112F
In [20], B31 returned a xmid (log10) of 0.366.

B32: vhh_tstrep_sars2_pjl1_L_38 (VHH)
VHH: B1 VHH with G97A, D109A
As for B32, the figures for the xmid (log10) in the test with CoV-2 (SARS-CoV-2) [22], in the test with CoV-2 (SARS-CoV-2) [2] and with CoV-2 (SARS-CoV-2) [14] were -0.286, 0.0417 and 0.854, respectively.

B33: vhh_tstrep_sars2_pjl1_L_137 (VHH)
VHH: B1 VHH with S57A, Y60H, G97A, E107A
For B33, the xmid (log10) in test [8] was -0.676; in test [5] it was -1.3.

B34: vhh_tstrep_sars2_pjl1_L_76 (VHH)
VHH: B1 VHH with S57A, Y60E, G97A
As to B34, the xmid (log10) in test [16] is -0.184; in test [7] it was -0.368.

B35: vhh_tstrep_sars2_pjl1_L_32 (VHH)
VHH: B1 VHH with G97A, E107A
As to B35, the xmid (log10) in the test with CoV-2 (SARS-CoV-2) [13] was -0.271; in the test with CoV-2 (SARS-CoV-2) [2], 0.239; in the test with CoV-2 (SARS-CoV-2) [14], 0.532.

B36: vhh_tstrep_sars2_pjl1_L_125 (VHH)
VHH: B1 VHH with S57A, Y60H, G97A, G102R
As for B36, the xmid (log10) in test [18] came to 0.297; in [10] it was 0.108.

B37: vhh_tstrep_sars2_pjl1_L_120 (VHH)
VHH: B1 VHH with S57A, Y60H, K65D, G97A
In the case of B37, the values for the xmid (log10) in test [15] and in test [10] were -0.493 and -0.0348, respectively.
